We go through 1 protein from paper PMC7699706, “Responses of DNA Mismatch Repair Proteins to a Stable G-Quadruplex Embedded into a DNA Duplex Structure” (International Journal of Molecular Sciences, 2020).

Substrate in this data set: Nc1ncnc2c1ncn2[C@@H]1O[C@H](COP(=O)(O)OP(=O)(O)OP(=O)(O)O)[C@@H](O)[C@H]1O
As to the kind of experiment: malachite green phosphate release assay, Michaelis-Menten fit. Format: biochemical, Escherichia coli. The conditions noted are these: no DNA, 5 mM MgCl2, 120 mM KCl, 10 mM HEPES-KOH pH 7.5, 37 °C, 250 nM MutS dimer. The source says:
malachite green phosphate release assay, Michaelis-Menten fit on ecMutS

As a reminder, the Km is the concentration of substrate that gives half-maximal velocity. What is called kcat is the maximal rate divided by the concentration of active sites.

B1: ecMutS (Escherichia coli K-12) (protein)
chain: MSAIENFDAHTPMMQQYLRLKAQHPEILLFYRMGDFYELFYDDAKRASQLLDISLTKRGASAGEPIPMAGIPYHAVENYLAKLVNQGESVAICEQIGDPATSKGPVERKVVRIVTPGTISDEALLQERQDNLLAAIWQDSKGFGYATLDISSGRFRLSEPADRETMAAELQRTNPAELLYAEDFAEMSLIEGRRGLRRRPLWEFEIDTARQQLNLQFGTRDLVGFGVENAPRGLCAAGCLLQYAKDTQRTTLPHIRSITMEREQDSIIMDAATRRNLEITQNLAGGAENTLASVLDCTVTPMGSRMLKRWLHMPVRDTRVLLERQQTIGALQDFTAGLQPVLRQVGDLERILARLALRTARPRDLARMRHAFQQLPELRAQLETVDSAPVQALREKMGEFAELRDLLERAIIDTPPVLVRDGGVIASGYNEELDEWRALADGATDYLERLEVRERERTGLDTLKVGFNAVHGYYIQISRGQSHLAPINYMRRQTLKNAERYIIPELKEYEDKVLTSKGKALALEKQLYEELFDLLLPHLEALQQSASALAELDVLVNLAERAYTLNYTCPTFIDKPGIRITEGRHPVVEQVLNEPFIANPLNLSPQRRMLIITGPNMGGKSTYMRQTALIALMAYIGSYVPAQKVEIGPIDRIFTRVGAADDLASGRSTFMVEMTETANILHNATEYSLVLMDEIGRGTSTYDGLSLAWACAENLANKIKALTLFATHYFELTQLPEKMEGVANVHLDALEHGDTIAFMHSVQDGAASKSYGLAVAALAGVPKEVIKRARQKLRELESISPNAAATQVDGTQMSLLSVPEETSPAVEALENLDPDSLTPRQALEWIYRLKSLV
notes: recombinant, N-terminal His6 tag, expressed in E. coli BL21(DE3), Ni-NTA and size exclusion; homodimer
As to B1, the Michaelis-Menten constant (Km) was found to be 35 ± 15 µM and the turnover number (kcat) was determined as 0.117 ± 0.0167 s⁻¹.
